The target of the test is VLDL receptor (VLDLR) on U937 clone 10 cells (UniProt P98155). In words: cell-based or functional assay.

Results on one substance are retold here after patent US20180092964A1.

As to “low endotoxin recombinant RAP (LDL Receptor-Associated Protein) (from UniProt P30533 35-357)”, the HIV-1 infectivity of U937 clone 10 cells preconditioned with RAP for 15 min, then with α1PI, and cultured for 8 days worked out at 93%.
